Source: patent US20070010658A1 (published 2007)

Columns and labels:
TNF alpha [1] = molecular target: T1, TNF alpha (UniProt P01375 77-233, limits assumed); assay: SPR (BIAcore 3000), TNF alpha captured by immobilised antibody AHC3712, binder injected
T1 construct: also called tumour necrosis factor; TNFSF2
Method: (§1) Surface plasmon resonance (SPR) binding analysis was performed on a BIAcore 3000 instrument (BiaCore, Sweden). TNF alpha capture antibody (AHC3712, Biosource International) to be immobilized was dissolved in 10 mM NaAcetate pH 5.0 and then immobilized on a CM5 BiaCore sensor chip using the Amine Coupling kit (BiaCore, Sweden).
(§2) Binding analysis was performed at a flow rate of 5 μl/min. Before loading of the protein sample, the chip was equilibrated in 10 mM Tris pH 8.0, 150 mM NaCl, 2 mM CaCl₂, 50 μM EDTA and 0.005% Surfactant P20. TNF alpha was dissolved in 10 mM Tris pH 8.0, 150 mM NaCl, 2 mM CaCl₂ at 10 μg/mL and 10 μL was injected. Aliquots (20 μl) of TNF alpha binders in monomeric or the trimeric format were injected using the KINJECT option. Five min of dissociation were allowed before the chip was regenerated with 10 mM Glycine pH 2.5. Binding of TNF alpha binders was tested at six different protein concentrations, ranging from 1 to 200 nM. Binding data were evaluated using the BIAevaluation program version 3.2 (BiaCore).

TNF alpha [2] = molecular target: T1, TNF alpha; assay: SPR; off rate of the trimer against monomeric TN3-2-B
Method: as §1, §2

TNF alpha [3] = molecular target: T1, TNF alpha; assay: SPR; fold increase in affinity of the trimer over monomeric TN3-2-B
Method: as §1, §2

TNF alpha [4] = molecular target: T1, TNF alpha; assay: SPR; fold increase in affinity of the trimer over monomeric TN3-2-C
Method: as §1, §2

TNF alpha [5] = molecular target: T1, TNF alpha; assay: SPR; fold increase in affinity of the trimer over monomeric TN3-2-D
Method: as §1, §2

T1 sequence (P01375 77-233 limits assumed): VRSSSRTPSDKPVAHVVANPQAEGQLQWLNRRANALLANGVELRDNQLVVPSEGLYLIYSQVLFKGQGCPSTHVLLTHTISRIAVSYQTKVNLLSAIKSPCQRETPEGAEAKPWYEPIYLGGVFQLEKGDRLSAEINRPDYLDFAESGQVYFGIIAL

B1: TN3-2-B (monomeric) (designed binder)
chain: ALQTVCLKGTKVHMKCFLAFTQTKTFHEASEDCISRGGTLSTPQTGSENDALYEYLRQSVGNEAEIWLGLNKVRSRYFWMDMTGTRIAYKNWETEITAQPDPTNNENCAVLSGAANGKWFGKRCRDQLPYICQFGIV
notes: Purified monomer from the E. coli periplasm (pBAD) for SPR
**Q.** Which Kd (TNF alpha [1]) does the source give for B1 here?
**A.** 73 nM

**Q.** What about the koff (TNF alpha [1]) of the same binder?
**A.** 0.923 s⁻¹

**Q.** What about the kon (TNF alpha [1]) of the same binder?
**A.** 1.4e+07 M⁻¹ s⁻¹

B2: TN3-2-C (monomeric) (designed binder)
chain: ALQTVCLKGTKVHMKCFLAFTQTKTFHEASEDCISRGGTLSTPQTGSENDALYEYLRQSVGNEAEIWLGLNKVRSRYFWVDMTGTRIAYKNWETEITAQPDPTNRENCAVLSGAANGKWFDKRCRDQLPYICQFGIV
notes: as for B1
**Q.** With B2 as the binder, how does the Kd (TNF alpha [1]) read?
**A.** 150 nM

**Q.** What about the koff (TNF alpha [1]) of the same binder?
**A.** 0.022 s⁻¹

**Q.** And the kon (TNF alpha [1])?
**A.** 134000 M⁻¹ s⁻¹

B3: TN3-2-D (monomeric) (designed binder)
chain: ALQTVCLKGTKVHMKCFLAFTQTKTFHEASEDCISRGGTLSTPQTGSENDALYEYLRQSVGNEAEIWLGLNKVRSRYFWIDMTGTRIAYKNWETEITAQPDPNNRENCAVLSGAANGKWFGKRCRDQLPYICQFGIV
notes: as for B1
**Q.** For B3, which Kd (TNF alpha [1]) is on record?
**A.** 50 nM

**Q.** And the koff (TNF alpha [1])?
**A.** 0.0185 s⁻¹

**Q.** And the kon (TNF alpha [1])?
**A.** 364000 M⁻¹ s⁻¹

B4: TN-2-B (trimeric) (designed binder)
chain: EPPTQKPKKIVNAKKDVVNTKMFEELKSRLDTLAQEVALLKEQQALQTVCLKGTKVHMKCFLAFTQTKTFHEASEDCISRGGTLSTPQTGSENDALYEYLRQSVGNEAEIWLGLNKVRSRYFWMDMTGTRIAYKNWETEITAQPDPTNNENCAVLSGAANGKWFGKRCRDQLPYICQFGIV
notes: also called trimeric version of TN3-2-B
**Q.** Which “fold improvement of off value” (TNF alpha [2]) does the source give for B4 here?
**A.** > 1000 fold

**Q.** What about the Kd (TNF alpha [1]) of the same binder?
**A.** ~0.24 nM

**Q.** What about the koff (TNF alpha [1]) of the same binder?
**A.** 0.000736 s⁻¹

**Q.** What about the kon (TNF alpha [1]) of the same binder?
**A.** 3.02e+06 M⁻¹ s⁻¹

**Q.** What about the Fold increase (TNF alpha [3]) of the same binder?
**A.** 304 fold

B5: TN-2-C (trimeric) (designed binder)
chain: EPPTQKPKKIVNAKKDVVNTKMFEELKSRLDTLAQEVALLKEQQALQTVCLKGTKVHMKCFLAFTQTKTFHEASEDCISRGGTLSTPQTGSENDALYEYLRQSVGNEAEIWLGLNKVRSRYFWVDMTGTRIAYKNWETEITAQPDPTNRENCAVLSGAANGKWFDKRCRDQLPYICQFGIV
notes: also called trimeric version of TN3-2-C
**Q.** How did the Fold increase (TNF alpha [4]) turn out when B5 was run?
**A.** 37 fold

**Q.** And the Kd (TNF alpha [1])?
**A.** 4 nM

**Q.** What about the koff (TNF alpha [1]) of the same binder?
**A.** 0.00353 s⁻¹

**Q.** And the kon (TNF alpha [1])?
**A.** 884000 M⁻¹ s⁻¹

B6: TN-2-D (trimeric) (designed binder)
chain: EPPTQKPKKIVNAKKDVVNTKMFEELKSRLDTLAQEVALLKEQQALQTVCLKGTKVHMKCFLAFTQTKTFHEASEDCISRGGTLSTPQTGSENDALYEYLRQSVGNEAEIWLGLNKVRSRYFWIDMTGTRIAYKNWETEITAQPDPNNRENCAVLSGAANGKWFGKRCRDQLPYICQFGIV
notes: also called trimeric version of TN3-2-D
**Q.** Which Fold increase (TNF alpha [5]) does the source give for B6 here?
**A.** 12 fold

**Q.** What about the Kd (TNF alpha [1]) of the same binder?
**A.** 4.1 nM

**Q.** What about the koff (TNF alpha [1]) of the same binder?
**A.** 0.00207 s⁻¹

**Q.** What about the kon (TNF alpha [1]) of the same binder?
**A.** 506000 M⁻¹ s⁻¹
